Patent US5985278A (Merck Patent Gesellschaft mit Beschrankter Haftung, priority 1994, dated 1999)
“And” between values parts separate entries of the source, which are not always exact repeats. Equal values may be shown once.

What was measured:
[1] = tested on: M21-L, M21-L4 and M21-L-IIb cells; experiment: DNA synthesis ([3H]-thymidine incorporation) in M21 variant lines; assay type: cell-based, human; conditions: M21-L and M21-LGpIIb, FIG. 9 B, D
Experimental: (§1) Adherent melanoma cells were detached (0.05% Trypsin/0.02% EDTA). Washed cells were seeded into 96-well flat-bottom microtest plates (1×10^4 cells per well) and cultured without (control) or in the presence of serially diluted antibodies in RPMI medium with 10% FCS. After 48 h, cells were pulse labelled for 18 h (18.5 kBeq [^3 H]-thymidine per well) and harvested. Incorporated radioactivity was measured and expressed as counts per minute.

[2] = molecular target: T1, αvβ3 (Homo sapiens, UniProt P05106+P06756); experiment: Direct competition assay, vitronectin binding to isolated αvβ3; conditions: isolated receptor
T1 construct: αVβ3 was purified from human placenta; from tissue; host or cells: human term placenta
Experimental: The plate was washed once with buffer B (3% BSA (w/v), 100 mM NaCl, 1 mM MgCl2, 1 mM CaCl2, 10 mM MnCl2, 50 mM Tris-HCl; pH 7.4) and incubated 2 h at 20° C. in the same buffer.
After rinsing with buffer C (buffer B with BSA at 0.1% (w/v)) was added containing biotinylated ligand (1 μg ml^-1 end concentration) and serially diluted test peptides or proteins. After incubation (3 h, 30° C.), unbound ligand was washed from the plate by 3 rinses with buffer C, and incubation continued for 1 h with anti-biotin-alkaline phosphatase-conjugated antibody (1:10000 in buffer C) (Sigma) followed by PBS wash and detection of bound antibody with NBT-BCIP (Biorad) as substrate. ECM molecules and antibodies were routinely biotinylated and used in such an assay configuration.
Assays were routinely performed in triplicate or quadruplicate, and repeated at least 3 times to derive an IC50 from an unweighted sigmoid curve fit. Results were normalized against external control peptides to allow intra-assay comparison.

[3] = in vivo; cited from earlier work
[4] = tested on: purified αvβ3; experiment: ELISA on purified αvβ3; assay type: binding, human
[5] = tested on: M21 cells; experiment: Flow cytometry (FACS) on M21; assay type: binding, human
Experimental: (§2) Cells were harvested with EDTA, washed, and 10^6 cells in PBS-1% BSA were incubated with MAb (10 μg ml^-1; 20 min, 4° C.). After washing and labelling (20 min, 4° C.) with goat anti-mouse Ig-FITC (Becton Dickinson), cells were incubated with propidium iodide before flow cytometry analysis (EPICS Profile II, Coulter). Living cells were selected by appropriate gates on the side and forward scatter. Fluorescein was excited at 488 nm with an argon ion laser and the emitted fluorescence (525 nm) was recorded. In some experiments, M21-L cells were stained following a brief fixation and permeabilization step (70% ethanol; 5 min×-20° C.).

[6] = tested on: M21-L cells; experiment: Flow cytometry (FACS) on M21-L; assay type: binding, human; conditions: relative to secondary antibody only
Experimental: as §2

[7] = tested on: M21-L-IIb cells; experiment: Flow cytometry (FACS) on M21-L-IIb; assay type: binding, human; conditions: relative to secondary antibody only
Experimental: as §2

[8] = tested on: M21-L4 cells; experiment: Flow cytometry (FACS) on M21-L4; assay type: binding, human; conditions: relative to secondary antibody only
Experimental: as §2

[9] = tested on: M21-L12 cells; experiment: Flow cytometry (FACS) on M21-L12; assay type: binding, human; conditions: relative to secondary antibody only
Experimental: as §2

[10] = tested on: UCLA-P3 cells; experiment: Flow cytometry (FACS) on UCLA-P3; assay type: binding, human; conditions: relative to secondary antibody only
Experimental: as §2

[11] = tested on: WM793 cells; experiment: Flow cytometry (FACS) on WM793; assay type: binding, human; conditions: relative to secondary antibody only
Experimental: as §2

[12] = tested on: B16F10 cells; experiment: Flow cytometry (FACS) on B16F10; assay type: binding; conditions: murine cell
Experimental: as §2

[13] = tested on: human melanoma and carcinoma cell lines; experiment: αV-mediated cell attachment to vitronectin, cell line panel; assay type: cell-based
Experimental: (§3) Cell Attachment Assays were as previously described (Goodman et al., 1991), using hexosaminidase activity (Landegren, 1984) to detect attached cells. Dilutions and cell suspensions were in attachment buffer (RPMI, 1% BSA, 25 mM HEPES; pH 7.4). Matrix proteins were coated onto 96- or 48-well plates, the wells were blocked with BSA and serially diluted MAbs were added to the wells followed by cells (2.5×10^4 -5×10^4). After 1 h at 37° C., non-adherent cells were washed away and attached cells counted against a standard curve run in parallel. Inhibition of attachment was calculated by using wells with no MAbs as reference. Typically, over 70% of added cells had attached to vitronectin at 1 h. Cell attachment to wells coated with BSA alone was routinely less than 5% of specifically attached cells.

[14] = tested on: M21 cells; experiment: M21 cell attachment to vitronectin; assay type: cell-based, human; conditions: maximal block
Experimental: as §3

[15] = tested on: αvβ5 (UCLA-P3 cells); experiment: Cell attachment to vitronectin mediated by αvβ5 (UCLA-P3 cells); assay type: cell-based, human
Experimental: as §3

[16] = tested on: WM793 cells; experiment: WM793 cell attachment to vitronectin; assay type: cell-based, human; conditions: FIG. 4e,f
Experimental: as §3

[17] = tested on: αvβ1 (V+B2 cells); experiment: Cell attachment to vitronectin mediated by αvβ1 (V+B2 cells); assay type: cell-based; conditions: FIG. 11
Experimental: as §3

[18] = tested on: αvβ3 (WM164 and M21 cells); experiment: Cell attachment to vitronectin mediated by αvβ3 (WM164 and M21 cells); assay type: cell-based, human; conditions: FIG. 11
Experimental: as §3

[19] = tested on: B16F10 cells; experiment: B16F10 cell attachment to vitronectin; assay type: cell-based; conditions: murine cell
Experimental: as §3

[20] = tested on: M21 cells; experiment: M21 cell attachment to laminin and collagen; assay type: cell-based, human; conditions: M21, FIG. 5
Experimental: as §3

[21] = tested on: M21 tumors; experiment: Subcutaneous M21 tumor development in nude mice; assay type: in vivo, BALB/c nu/nu mice
Experimental: (§4) Tumor cells in exponential growth were harvested with EDTA, washed and examined for viability by trypan blue dye exclusion. Viability was between 96-99%. For primary tumor growth, cells (0.5×10^6 cells in 0.2 ml PBS++) were injected subcutaneously into the flanks of nude mice. Tumor growth was followed by measuring tumor diameters with callipers and the tumor volume was calculated using an approximated formula for a prolate ellipsoid: […]
(§5) where a is the longest axis of the tumor and b the shortest. A minimum of eight animals was used per group.
(§6) For experimental lung metastasis, cells were harvested (0.05% Trypsin/0.02%EDTA) and were injected into the tail vein of nude mice (0.5×10^6 cells in 0.2 ml PBS++). 7 weeks later the animals were sacrificed, the lungs removed and fixed in a Bouins' solution, and the tumor foci on the surface of the lungs counted. For antibody treatment, harvested and washed cells were incubated with purified endotoxin free MAbs (70 μg per 10^6 cells 0.5 ml PBS++) for 30 min at 20° C. in an end-over-end rotator before dilution to 0.5×10^6 cells in 0.2 ml PBS and injection. Cells viability was assessed by Trypan blue dye exclusion before and after completing the injection schedule, where no significant difference was found (viability pre-injection=viability post injection ±5%). The tumor inhibition data was assessed using the 2-tailed Student T-test.

[22] = tested on: M21-L; experiment: Subcutaneous M21-L tumor development in nude mice; assay type: in vivo, BALB/c nu/nu mice; conditions: FIG. 7b
Experimental: as §4, §5, §6

[23] = tested on: M21 tumor foci; experiment: Lung colonization experimental metastasis assay; assay type: in vivo, BALB/C nu/nu mice
Experimental: as §6

[24] = tested on: M21 cells; experiment: M21 cell proliferation assay; assay type: cell-based, human; design: dose or concentration left out as unconfirmed; conditions: M21, antibody (FIG. 8a)
Experimental: […] Growth and viability were estimated by Trypan blue dye exclusion. Activation was measured by the MTT assay as described above, and cell numbers were counted daily using a cell counter (Coulter electronics).

[25] = tested on: M21 cells; experiment: Antibody-directed cellular cytotoxicity (ADCC) with BALB/c microglia; assay type: cell-based, human; conditions: up to 10^-7 M, murine microglia effector cells
Experimental: Preparation of BALB/C microglial cells and conditions for ADCC and antibody-effector cell mediated cytostasis (AECM) were essentially as described (Sutter et al., 1991). M21 cells were pulsed for 18 h with ^3 H-thymidine (18 kBq per 4×10^3 cells per well) and incubated on 96-well plates with BALB/C microglia (5×10^4 cells per well) in 200 μl DMEM/FCS (10%) in the presence of antibodies. After 48 hrs, [^3 H] label retained in the nuclear compartment of target cells was measured. MAb dependent cytotoxicity was calculated using the formula: [(experimental ccpm-spontaneous ccpm)/(maximum ccpm-spontaneous ccpm)]×100.

[26] = tested on: M21 cells; experiment: DNA synthesis ([3H]-thymidine incorporation) in M21; assay type: cell-based, human; design: dose or concentration left out as unconfirmed
Experimental: as §1

[27] = tested on: M21 cells; experiment: Complement dependent cytotoxicity (CDC); assay type: cell-based, human; conditions: not shown
Experimental: M21 cells (10,000) were plated in a 96-well plate with 50 μl of complete medium and 20 μl of antibodies. Rabbit serum (50 μl, 1:5; Behring) was added as source of complement and plate was incubated (37° C.; 60 min). Lysis was quantified by MTT technique (Mosmann, 1983). Percent of lysis was calculated using wells with 1% Tween-20 as 100% lysed controls, and without antibody as 0% lysed control.

T1 sequence (P06756 31-889 limits assumed): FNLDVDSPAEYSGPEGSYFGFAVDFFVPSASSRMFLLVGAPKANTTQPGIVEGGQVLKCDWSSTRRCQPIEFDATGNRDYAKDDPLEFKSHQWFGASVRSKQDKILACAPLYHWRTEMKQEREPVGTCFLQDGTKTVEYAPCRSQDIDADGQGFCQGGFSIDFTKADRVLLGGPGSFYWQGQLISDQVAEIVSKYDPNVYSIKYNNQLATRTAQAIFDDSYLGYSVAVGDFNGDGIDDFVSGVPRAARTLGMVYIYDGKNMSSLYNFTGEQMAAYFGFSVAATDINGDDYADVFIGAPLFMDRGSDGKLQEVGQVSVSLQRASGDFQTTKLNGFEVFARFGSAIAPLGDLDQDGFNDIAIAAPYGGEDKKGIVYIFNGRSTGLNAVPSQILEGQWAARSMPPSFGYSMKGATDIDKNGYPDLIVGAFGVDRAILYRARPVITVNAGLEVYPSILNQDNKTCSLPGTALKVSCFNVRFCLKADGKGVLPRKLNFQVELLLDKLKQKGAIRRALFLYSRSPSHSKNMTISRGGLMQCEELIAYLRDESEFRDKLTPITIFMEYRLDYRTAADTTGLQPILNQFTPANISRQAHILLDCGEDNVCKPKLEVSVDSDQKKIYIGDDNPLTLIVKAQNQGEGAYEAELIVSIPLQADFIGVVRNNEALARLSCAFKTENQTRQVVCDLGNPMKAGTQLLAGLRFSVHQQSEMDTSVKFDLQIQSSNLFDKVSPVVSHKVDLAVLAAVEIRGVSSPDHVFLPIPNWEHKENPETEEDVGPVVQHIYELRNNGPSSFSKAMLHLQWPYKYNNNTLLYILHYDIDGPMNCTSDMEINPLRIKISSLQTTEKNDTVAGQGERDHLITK
T1 sequence (P06756 891-1048 limits assumed): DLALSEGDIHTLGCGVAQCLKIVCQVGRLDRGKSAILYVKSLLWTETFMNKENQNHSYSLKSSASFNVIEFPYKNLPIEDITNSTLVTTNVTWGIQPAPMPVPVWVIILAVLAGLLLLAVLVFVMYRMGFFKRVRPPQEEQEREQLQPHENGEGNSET
T1 sequence (P05106 27-788): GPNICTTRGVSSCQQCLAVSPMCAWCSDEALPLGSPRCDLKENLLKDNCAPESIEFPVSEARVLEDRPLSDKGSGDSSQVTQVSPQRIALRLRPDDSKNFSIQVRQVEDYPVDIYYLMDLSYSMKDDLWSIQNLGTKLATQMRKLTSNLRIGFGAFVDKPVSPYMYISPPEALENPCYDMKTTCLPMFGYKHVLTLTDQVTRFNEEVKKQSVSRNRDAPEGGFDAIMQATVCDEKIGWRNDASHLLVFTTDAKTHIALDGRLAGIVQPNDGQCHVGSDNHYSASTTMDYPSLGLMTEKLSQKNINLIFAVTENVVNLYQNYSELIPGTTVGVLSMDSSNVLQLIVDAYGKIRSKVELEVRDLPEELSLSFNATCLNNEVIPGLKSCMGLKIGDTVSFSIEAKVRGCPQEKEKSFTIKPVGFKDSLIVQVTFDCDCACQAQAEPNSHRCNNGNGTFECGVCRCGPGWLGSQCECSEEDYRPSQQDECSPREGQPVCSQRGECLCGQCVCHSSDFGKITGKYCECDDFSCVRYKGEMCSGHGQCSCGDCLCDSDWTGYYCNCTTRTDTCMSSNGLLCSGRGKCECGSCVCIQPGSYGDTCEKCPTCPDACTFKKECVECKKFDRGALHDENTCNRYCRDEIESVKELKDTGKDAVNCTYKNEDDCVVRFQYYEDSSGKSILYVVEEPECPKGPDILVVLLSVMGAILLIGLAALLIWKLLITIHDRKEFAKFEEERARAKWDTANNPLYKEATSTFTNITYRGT

CC(=O)O[C@H]1C(=O)[C@@]2(C)[C@H]([C@H](OC(=O)c3ccccc3)[C@]3(O)C[C@H](OC(=O)[C@H](O)[C@@H](NC(=O)c4ccccc4)c4ccccc4)C(C)=C1C3(C)C)[C@]1(OC(C)=O)CO[C@@H]1C[C@@H]2O [Taxol]
DNA synthesis, positive control [1]: completely suppresses

GRGDSPK [Gly-Arg-Gly-Asp-Ser-Pro-Lys]
IC50 [2]: ~2000 nM

RGDS: RGD-peptide (SEQ ID NO:6)
serum half-life [3]: 8 min

B1: 17E6: murine IgG1 monoclonal antibody against human αv-integrin chain, from hybridoma 272-17E6 (DSM ACC2160) (antibody, V domains shown)
VH: QVQLQQSGAELAEPGASVKMSCKASGYTFSSFWMHWVKQRPGQGLEWIGYINPRSGYTECNEIFRDKATMTADTSSSTAYMQLSGLTSEDSAVYYCASFLGRGAMDYWGQGTSVTVSS
VL: DIQMTQTTSSLSASLGDRVIISCRASQDISNYLSWYQQKPDGTVKLLIFYTSKLHSGVPSRFSGSGSGTDYSLTISNLDQEDIATYFCQQGNTFPYTFGGGTKVEMR
50% saturation in ELISA on isolated αvβ3 ([4]; FIG. 10): ~ 1 ng ml^-1
50% binding to αvβ3 in ELISA ([4]; screening ELISA): 10 to 20 ng/mL
EC50 ([4]; screening ELISA, read-out: 50% binding to αvβ3 in ELISA): 0.05 to 0.1 nM
Reactivity in flow cytometry, M21 (αvβ3; αvβ5) ([5]; relative to secondary antibody only, MAb 10 μg ml^-1): ++ (4-9 (++))
FACS reaction with M21 ([5]; αv-expressing line): strongly
Reactivity in flow cytometry, M21-L [6]: - (1-2 (-))
Reactivity in flow cytometry, M21-L-llb (αllbβ3) [7]: - (1-2 (-))
Reactivity in flow cytometry, M21-L4 [8]: ++ (4-9 (++))
Reactivity in flow cytometry, M21-L12 [9]: - (1-2 (-))
Reactivity in flow cytometry, UCLA-P3 (αvβ5) [10]: +++ (>9 (+++))
Reactivity in flow cytometry, WM793 (αvβ3; αvβ5) [11]: +++ (>9 (+++))
FACS reaction with B16F10 [12]: did not react
IC50 in cellular assay [13]: ~ 100 ng ml^-1
IC50 ([13]; antibody MW 150,000, read-out: IC50, αV-mediated cell attachment): 0.3 to 1 nM
initial attachment to vitronectin of cells reacting in FACS with 17E6 ([13]; hybridoma supernatants, FIG. 3): strongly blocked
block of M21 initial attachment to vitronectin [14]: ~ 85% and ~ 90%
IC50, attachment to vitronectin on αvβ5 (UCLAP3) ([15]; FIG. 4c,d): ~ 30 ng ml^-1
IC50, cell attachment mediated by αvβ5 (UCLA-P3 cells) ([15]; vitronectin, FIG. 11): ~ 0.1 μg ml^-1
IC50, WM793 attachment to vitronectin [16]: ~ 60 ng ml^-1
IC50, cell attachment mediated by αvβ1 (V+B2 cells) [17]: ~ 0.1 μg ml^-1
IC50, αvβ3 attachment (WM164 and M21 cells) [18]: ~ 0.5 μg ml^-1
B16F10 attachment on vitronectin [19]: not affected
cell attachment to other matrix substrates (laminin, collagen) [20]: lack of effect
tumors and metastases at sacrifice ([21]; 6 months, lungs, liver, kidney, spleen, colon, stomach, body cavities): neither subcutaneous tumors nor metastases
tumors taken in the presence of antibody ([21]; M21 cells subcutaneously co-injected with antibody): 0/32
experiments in which subcutaneous development of M21 tumors was blocked ([21]; mouse, in vivo): 4/4
time animals remain tumor free ([21]; mouse, in vivo): > 6 months
subcutaneous M21-L growth / take [22]: unaffected
Tumor Take ([23]; 7 weeks after tail vein injection): 78
Number of Tumor Foci, Mean ± SEM ([23]; lung surface, 7 weeks): 8 ± 7.7
Number of Tumor Foci, Median ([23]; lung surface, 7 weeks): 5
reduction of numbers of tumor colonies ([23]; pre-incubation of M21 with antibody, tail-vein injection): 90%
% Control ([23]; tumor foci relative to M21 control): 9%
kinetic of cell growth and saturation density [24]: not greatly influenced
ADCC against M21 [25]: did not mediate ADCC
thymidine incorporation in M21 cells [26]: no effect
complement mediated lysis on M21 cells [27]: did not affect
